By EC50 is commonly meant the midpoint of the concentration-response curve. In general, IC50 refers to the concentration needed to halve the response being measured.

Square brackets hold non-standard residues; d marks the D form. Ends that are not written are not given here. * marks the point of attachment. Biotin = O=C1N[C@H]2[C@H](CS[C@H]2CCCCC(=O)*)N1; Ahx = NCCCCCC(=O)O

EC50, binding result and IC50 data for five molecules are collected here from doi:10.1101/671156, “Oncoprotein CoAA repeats interact with RNA polymerase II CTD repeats” (bioRxiv, 2019).

The target of assay [1] is T1, GST-YxxQ (307-545), recombinant CoAA YxxQ repeats (human, UniProt Q96PK6 307-545).
T1 construct: CoAA (RBM14) YxxQ repeats, residues 307-545; also called YxxQ repeats (307-545); recombinant GST fusion CoAA YxxQ repeats; source: recombinant GST fusion protein
T1 sequence (looked up): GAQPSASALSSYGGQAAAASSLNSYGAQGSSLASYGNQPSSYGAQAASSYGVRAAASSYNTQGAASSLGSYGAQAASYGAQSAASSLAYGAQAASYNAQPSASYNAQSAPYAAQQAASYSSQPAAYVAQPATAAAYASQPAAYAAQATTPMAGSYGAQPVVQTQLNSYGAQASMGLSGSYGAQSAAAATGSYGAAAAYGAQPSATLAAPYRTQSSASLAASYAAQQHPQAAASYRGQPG
Description: ELISA; GST-YxxQ or GST-AxxQ (307-545) coated at 500 ng/well on 96-well plate with BSA; biotin-labeled diheptad peptides at 6.4-20000 ng/ml overnight; streptavidin-HRP, luminescence; EC50 by sigmoidal non-linear curve fit. Particulars: both partners purified. (In general: ELISA stands for enzyme-linked immunosorbent assay.)

Assay [2] addresses T1, GST-YxxQ (307-545), recombinant CoAA …. Description: ELISA; competition: GST-YxxQ coated; non-labeled IERM peptide at 12.8-40000 ng/ml against a constant concentration of biotin-labeled CTD peptides; streptavidin-HRP. Particulars: both partners purified.
The target in assay [3] is T2, GST-YxxQ (307-545), recombinant CoAA YxxQ repeats (human, UniProt Q96PK6 307-545).
T2 chain: T1 sequence (looked up)
Description: ELISA; competition with biotin-labeled pSer5 CTD peptide.

B1: biotin-labeled Ser5-phosphorylated CTD diheptad peptide (peptide)
peptide: KKSYSPTSPSYSPTSPS
modifications: phosphoserine at Ser5 of each heptad (SYSPTpSPSYSPTpSPS); biotin on the N-terminus; C6 spacer (aminocaproic acid) between KK and the peptide
notes: two lysine residues inserted between biotin and the C6 spacer: [Biotin]-KK-C6-peptide; diheptad of the CTD heptad repeats of the RNAP II largest subunit, printed as SYSPTpSPSYSPTpSPS; also called pSer5 CTD; source: synthetic peptide
Regarding B1, the EC50 in assay [1] was found to be 101 nM.

B2: biotin-labeled unphosphorylated CTD diheptad peptide (peptide)
peptide: KKSYSPTSPSYSPTSPS
modifications: biotin on the N-terminus; C6 spacer (aminocaproic acid) between KK and the peptide
notes: two lysine residues inserted between biotin and the C6 spacer: [Biotin]-KK-C6-peptide; diheptad of the CTD heptad repeats (YSPTSPS) of the RNAP II largest subunit; also called CTD peptide; unphosphorylated CTD peptide; source: synthetic peptide
With B2, the concentration for a half-maximal effect (EC50) in assay [1] worked out at 1070 nM.

B3: biotin-labeled IERM diheptad peptide (peptide)
peptide: Biotin-KK[Ahx]TIERMGSGVERMGPA
notes: two lysine residues inserted between biotin and the C6 spacer: [Biotin]-KK-C6-peptide; diheptad of the IERM repeats of hnRNP M; also called IERM peptide; source: synthetic peptide
With B3, the 50% effective concentration (EC50) in assay [1] was 83 nM.

B4: non-labeled IERM diheptad peptide (peptide)
peptide: TIERMGSGVERMGPA
notes: diheptad of the IERM repeats of hnRNP M, without biotin label; also called nonlabeled IERM peptide; IERM peptide; source: synthetic peptide
Turning to B4, the binding result in assay [2] is on record as “binds”. Besides, the concentration for half-maximal inhibition (IC50) in assay [3] was determined as 106 nM.

B5: biotin-labeled Ser2-phosphorylated CTD diheptad peptide (peptide)
peptide: KKSYSPTSPSYSPTSPS
modifications: phosphoserine at Ser2 of each heptad (SYpSPTSPSYpSPTSPS); biotin on the N-terminus; C6 spacer (aminocaproic acid) between KK and the peptide
notes: two lysine residues inserted between biotin and the C6 spacer: [Biotin]-KK-C6-peptide; diheptad of the CTD heptad repeats of the RNAP II largest subunit, printed as SYpSPTSPSYpSPTSPS; also called pSer2 CTD; source: synthetic peptide
As for B5, the EC50 in assay [1] was found to be 135 nM.
